Earlier results on one substance are cited in article PMC6347146.

For orientation: Kd means the equilibrium constant for the complex coming apart.

The target in the series is IL-21R (Homo sapiens) (UniProt Q9HBE5).
Chain of UniProt Q9HBE5 (Q9HBE5 20-232): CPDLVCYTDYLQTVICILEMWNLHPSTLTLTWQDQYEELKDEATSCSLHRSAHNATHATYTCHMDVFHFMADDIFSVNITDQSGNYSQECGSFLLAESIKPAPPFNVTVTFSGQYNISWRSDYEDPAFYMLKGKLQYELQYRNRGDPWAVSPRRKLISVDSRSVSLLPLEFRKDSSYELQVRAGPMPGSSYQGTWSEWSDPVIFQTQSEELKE

On to IL-21 (from UniProt Q9HBE4), for which the Kd was 0.07 nM.
